T1: human ASGR-1 (human, UniProt P07306 1-291)
T1 construct: Stably expressed on CHO-S cells (CHO-S:huASGR-1); The method text says human or mouse ASGR-1 cells were used; also called huASGR-1; hASGR-1
T1 sequence: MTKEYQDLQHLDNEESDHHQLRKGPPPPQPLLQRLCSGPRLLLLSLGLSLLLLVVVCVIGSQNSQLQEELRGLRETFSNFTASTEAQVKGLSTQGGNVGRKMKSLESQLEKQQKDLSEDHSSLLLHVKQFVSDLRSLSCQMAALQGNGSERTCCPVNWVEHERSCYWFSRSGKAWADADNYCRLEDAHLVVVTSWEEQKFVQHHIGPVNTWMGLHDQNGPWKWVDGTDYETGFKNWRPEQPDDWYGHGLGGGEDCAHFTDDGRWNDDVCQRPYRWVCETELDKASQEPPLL

T2: human ASGR-1 (wild type) (human, UniProt P07306 1-291)
T2 construct: also called wt ASGR1; huASGR-1
T2 sequence: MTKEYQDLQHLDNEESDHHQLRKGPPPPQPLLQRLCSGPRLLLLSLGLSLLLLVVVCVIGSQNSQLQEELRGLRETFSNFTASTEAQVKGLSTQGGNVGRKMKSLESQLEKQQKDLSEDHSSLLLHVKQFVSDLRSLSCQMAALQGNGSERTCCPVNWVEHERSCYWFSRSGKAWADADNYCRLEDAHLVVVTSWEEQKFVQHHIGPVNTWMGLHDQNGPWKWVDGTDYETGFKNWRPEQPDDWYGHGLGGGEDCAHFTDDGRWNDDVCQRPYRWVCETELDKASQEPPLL

T3: human ASGR-1 mutant construct H203 (human, UniProt P07306 1-291)
T3 construct: Arg/Glu scanning: non-arginine residues were changed to arginine; Transiently expressed on CHO-S cells
T3 sequence: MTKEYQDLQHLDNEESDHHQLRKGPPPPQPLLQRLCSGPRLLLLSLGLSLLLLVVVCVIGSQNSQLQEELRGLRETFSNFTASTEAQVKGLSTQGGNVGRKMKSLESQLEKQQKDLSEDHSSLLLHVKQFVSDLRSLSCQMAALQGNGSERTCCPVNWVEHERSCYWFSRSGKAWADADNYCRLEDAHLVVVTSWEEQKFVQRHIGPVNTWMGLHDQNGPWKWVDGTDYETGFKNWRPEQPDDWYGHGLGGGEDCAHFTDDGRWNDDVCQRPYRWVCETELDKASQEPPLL


What was measured:
human ASGR-1 [1] = biological target: T1, human ASGR-1; assay: FACS ligand blocking on CHO-S ASGR-1 cells; competitor biotinylated asialofetuin
Protocol: (§1) All ASGR-1 antibodies that bound either human or mouse ASGR-1 stable CHO—S cells were then tested for ligand blocking using both a protein ligand and a synthetic sugar ligand. The method in brief is as follows: first, 20 ul of either CHO-Shuman or mouse ASGR-1 cells were added to wells of a 384 well plate (30 k cells/well) followed by spin and discarding the supernatant. Second, 10 ul of the antibodies (either purified from hybridoma supernatants or made recombinantly) were added in duplicate to the cells in a dilution series (200 nM top concentration, 1:2 serial dilution, 11 point curve) and were incubated for 30 min at 4 C. […] After 30 min incubation at 4C, the plate was spun and washed twice with FACS buffer+1 mM CaCl2 followed by the detection streptavidin-AF647 at 1:1000 dilution. After 30 min at 4C, the cells were spun and washed once and then 60 ul PI added at 1:1000 dilution and the plates delivered to a core flow cytometry facility. The plates were read and processed similarly to the cell binding method except the signal now represents an inhibition curve and typically decreases a function of increasing antibody concentration. IC50 nM potency and % Inhibition were reported. […] Differences in the ability of antibodies to block these two ligands could occur as a result of differences in, for example, avidity stemming from differences in the number and/or orientation of the ASGR binding terminal sugar residues of each ligand, steric hindrance between antibody and each ligand, and/or changes in the conformation of ASGR induced by antibody binding that selectively alters the binding of each ligand.

human ASGR-1 [2] = biological target: T1, human ASGR-1; assay: FACS ligand blocking on CHO-S ASGR-1 cells; labelled ligand biotin-GalNAc-PAA (synthetic sugar)
Protocol: as §1

human ASGR-1 (wild type) [3] = biological target: T2, human ASGR-1 (wild type); assay: FACS, transfected CHO-S cells, mAb 5 ug/ml
Protocol: (§2) The ability of human ASGR-1-specific, ligand competing antibodies to bind to the mutant hASGR-1 proteins was assessed by FACS as described above.
(§3) Antibodies were tested for binding to the individual mutant and wild type ASGR-1 constructs using normalized antibody concentrations (5 ug/ml). CHO—S cells transiently expressing the appropriate mutated or non-mutated antigen of interest were mixed with antibody sample or controls, incubated for 1 hour at 4° C., and then washed twice. Cells with bound antibody were then incubated with Alexa Fluor® 647 IgG Fc fragment-specific detection antibody and 7-AAD viability stain for 15 minutes at 4° C., washed once and resuspended in FACS buffer. Samples were analyzed using a BD Accuri™ Flow Cytometer and an Intellicyt HyperCyt Autosampler. As a negative control, supernatants and controls were also screened against CHO—S cells transfected with empty parental vector (referred to as mock). […] Because mutant hASGR-1 expression levels varied relative to each other, sample binding data for each construct was normalized for expression by dividing the binding data from an antibody not affected by the mutations (e.g., 65C12) by the binding values of each test antibody on a given mutant construct. Also, because the antibody binding affinities varied amongst the samples, the expression corrected data (above) was further normalized by comparing test antibody binding on each mutant construct to wild type hASGR-1. Identification of specific mutations that affected test antibody binding was performed by an interquartile range (IQR) analysis to determine statistical outliers. A mutation was identified as a “hit” if the calculated values were >3× the IQR (above the 3rd quartile/upper fence) for a given mutant construct. Although IQR analysis was used here to determine signifance and identify hits, one skilled in the art will recognize that a number of methods could be employed in order to normalize the data (eg. using epitope-tagged constructs or other ASGR-1-binding antibodies directed against non-CBD epitopes).

[4] = biological target: T3, human ASGR-1 mutant construct H203; assay: FACS, transfected CHO-S cells, mAb 5 ug/ml
Protocol: as §2, §3

human ASGR-1 (wild type) [5] = biological target: T2, human ASGR-1 (wild type); assay: FACS ratio: 65C12 geomean / this mAb geomean
Protocol: (§4) Mutant hASGR-1 variants were constructed such that non-arginine residues were changed to arginine and where wild type arginine residues were mutated to glutamic acid. Each mutant hASGR-1 sequence was then cloned into a mammalian expression vector and used to transiently transfect CHOs cells. The ability of human ASGR-1-specific, ligand competing antibodies to bind to the mutant hASGR-1 proteins was assessed by FACS as described above.
(§5) Antibodies were tested for binding to the individual mutant and wild type ASGR-1 constructs using normalized antibody concentrations (5 ug/ml). CHO—S cells transiently expressing the appropriate mutated or non-mutated antigen of interest were mixed with antibody sample or controls, incubated for 1 hour at 4° C., and then washed twice. Cells with bound antibody were then incubated with Alexa Fluor® 647 IgG Fc fragment-specific detection antibody and 7-AAD viability stain for 15 minutes at 4° C., washed once and resuspended in FACS buffer. Samples were analyzed using a BD Accuri™ Flow Cytometer and an Intellicyt HyperCyt Autosampler. As a negative control, supernatants and controls were also screened against CHO—S cells transfected with empty parental vector (referred to as mock). […] Because mutant hASGR-1 expression levels varied relative to each other, sample binding data for each construct was normalized for expression by dividing the binding data from an antibody not affected by the mutations (e.g., 65C12) by the binding values of each test antibody on a given mutant construct. Also, because the antibody binding affinities varied amongst the samples, the expression corrected data (above) was further normalized by comparing test antibody binding on each mutant construct to wild type hASGR-1. Identification of specific mutations that affected test antibody binding was performed by an interquartile range (IQR) analysis to determine statistical outliers. A mutation was identified as a “hit” if the calculated values were >3× the IQR (above the 3rd quartile/upper fence) for a given mutant construct.

[6] = biological target: T3, human ASGR-1 mutant construct H203; assay: FACS ratio: 65C12 geomean / this mAb geomean
Protocol: as §4, §5

[7] = biological target: T3, human ASGR-1 mutant construct H203; assay: FACS ratio: H203 normalized value / wt normalized value
Protocol: as §2, §3

% Inhibition (human ASGR-1 [1]) | IC50 (human ASGR-1 [1]) | % Inhibition (human ASGR-1 [2]) | IC50 (human ASGR-1 [2]) | FACS Binding Geomean (human ASGR-1 (wild type) [3]) | FACS Binding Geomean [4] | Expression Normalization to mAb 65C12 (human ASGR-1 (wild type) [5]) | Expression Normalization to mAb 65C12 [6] | Normalization to wt ASGR1 Binding [7] | Binder
99% | 22 nM | 99% | 55 nM | – | – | – | – | – | 198D2 (antibody, V domains shown) VH: QVQLVESGGGVVQPGRSLRLSCAASGFTFRSYGMHWVRQAPGKGLEWVAVIIYDGSYKYYADSVKGRFTISRDNSKNTLYLQMNSLRAEDTAVYYCARTYSGGMDVWGQGTTVTVSS VL: QSVLTQPPSVSAAPGQKVTISCSGSSSNIGSNYVSWYQQLPGTAPKVLIYDNNKRPSGIPDRFSGSKSGTSATLGITGLQTGDEADYYCGTWDSRLNVGVFGGGTKLTVL
99% | 28 nM | 99% | 71 nM | – | – | – | – | – | 218G4 (antibody, V domains shown) VH: QVQLVESGGGVVQPGRSLRLSCAASGFTFSSYGLHWVRQAPGKGLEWVAVIWYDGSNKYYADSVKGRFTISRDNSKNTLYLQMNSLRVEDTAVYYCANWYYYYYGMDVWGQGTTVTVSS VL: QSVLTQPPSVSAAPGQKVTISCSGSSSNIGNNYVSWYQQLPGTAPKLLLYDSNKRPSGIPARFSGSKSGTSATLGITGLQTGDEADYYCGTWDSSLNTVVFGGGTKLTVL
98% | 16 nM | 96% | 32 nM | – | – | – | – | – | 202A3 (antibody, V domains shown) VH: QVQLEQSGAEVKKPGASVKVSCKASGYTFTSYDINWVRQATGQGLEWLGWMNPKRGNTGYAQKFQGRVTMTRNTSISTAHMELSSLRSEDTAVYYCARGRYSREDYYYYYDMDVWGQGTTVTVSS VL: DIQMSQSPSSLSASVGDRVTITCRASQGIRNDLGWYQQKPGKAPKRLICAASRLQSGVPSRFSGSGSGTEFTLTISSLQPEDFAIYYCLQHHDYPFTFGPGTKVDIK

The remaining lines, values behind:

Binder | % Inhibition (human ASGR-1 [1]) | IC50 (human ASGR-1 [1]) | % Inhibition (human ASGR-1 [2]) | IC50 (human ASGR-1 [2]) | FACS Binding Geomean (human ASGR-1 (wild type) [3]) | FACS Binding Geomean [4] | Expression Normalization to mAb 65C12 (human ASGR-1 (wild type) [5]) | Expression Normalization to mAb 65C12 [6] | Normalization to wt ASGR1 Binding [7]
4A2 (antibody, V domains shown) VH: QVQLVQSGTEVKKPGASVKVSCKASGYTFTNYDINWVRQATGQGLEWMGWMHPNSGNTGYAQKFQGRVTLTRNTSISTAYMELSSLRSEDTAVYYCASSSGWYYFDYWGQGTLVTVSS VL: DIVMTQSPDSLAVSLGERATINCKSSQSILHSSNNNNYLAWFQQKPGQPPKLLLYWASTRESGVPDRFSGSGSGTDFTLTISSLQPEDVAVYYCQQYYNTPVTFGPGTKVGIK | 99% | 11 nM | 70% | 54 nM | – | – | – | – | –
197G3 (antibody, V domains shown) VH: QVQLVESGGGVVQPGRSLRLSCVASGFTFSSHGMHWVRQAPGKGLEWVAVIWYDGSNKNYADSVKGRFTISRDNSKNTLYLQMNSLRAEDTAVYYCARDPSVGYDGMDVWGQGTTVTVSS VL: DIQMTQSPSSLSASVGDRVTITCRASQGIGNHLAWFQQKPGKAPKSLIYAASSLQSGVPSKFSGSRSGTDFSLTISSLQPEDFATYYCQQYSNYPVTFGPGTKVDIK | 90% | 29 nM | 74% | 15 nM | – | – | – | – | –
4B1 (antibody, V domains shown) VH: QVQLQESGPGLVKPSETLSLTCSVSGDSISSYSWSWIRQPAGKGLEWIGRIYTSGSTNYIPSLKSRITMSVDTSKKQFSLKLSSVTAADTAVYYCARDLKSSGCLFFDYWGQGTLVTVSS VL: DIQMTQSPSSLSASVGDRVTITCRASHTIRTYLNWYQQKPGKAPKLLIYAASSLQSGVPSRINGSGSGTDFTLTITNLQPEDFATYYCQQSYNISFTFGPGTKVDIK | 75% | 64 nM | 36% | 42 nM | – | – | – | – | –
10G6 (antibody, V domains shown, mAb) VH: QVQLVQSGAEVKKPGASVKVSCKASGYTFTAYHMHWVRQAPGQGLEWMGWINPNNNGTNYAQKFQGRVTMTRDTSISTAYMELSRLRSDDTAVYYCGRDVTSSFDYWGQGTLVTVSS VL: DIQMTQSPSSVSASVGDRVTITCRASQGISKWLAWYQQKPGKAPKILIYAAYSLQSGVPARFSGSGSGTDFTLTIRSLQPEDFATYYCQQANSFPFTFGPGTKVDIK | – | – | – | – | 43100 | 18200 | 1.3 | 1.41 | 1.09
4H6 (antibody, V domains shown, tested as antibody purified from hybridoma supernatant or made recombinantly) VH: QVQLVQSGAEVKKPGASVKVSCKASGYTFTDYYLHWVRQAPGQGLEWMGWIHPNSGGTNYAQKFQGRVTMTRDTSISTAYMGLSSLRSDDTAVYYCARDGTSSFDYWGQGTLVTVSS VL: DIQMTQSPSSVSASVGDRVTITCRASQGISRWLAWYQQKPGKAPKLLIYGASSLQSGVPSRFSGSGSGTDFTLTISSLQPEDFAIYYCQQANSFPFTFGPGTKVDIK | 85% | 12 nM | 20% | 8.1 nM | – | – | – | – | –
53F7 (antibody, V domains shown, mAb) VH: QVQLVQSGAEVKKPGASVKVSCKASGYTFTGYHMHWVRQAPGQGLEWMGWINPNNNGTNYAQKFQGRVTMTRDTSISTAYMELNRLTSDDTAVYYCARDGTSSFDYWGQGTLVTVSS VL: DIQMSQSPSSVSASVGDRVTITCRASQGISRWLAWYQQKPGKAPNLLIYAASSLQSGVPSRFSGSGSGTDFTLTISSLQPEDFAIYYCQQANSFPFTFGPGTKVDIK | – | – | – | – | 43500 | 18100 | 1.29 | 1.42 | 1.1
